Measured values as given in patent publication US20240317859A1 (published 2024).
Substitutions are numbered along the chain they refer to.

T1: FcγRIIB/C (CD32b/c) (FcγRIIB) (R&D Systems) (UniProt P31994 46-217)
T1 chain: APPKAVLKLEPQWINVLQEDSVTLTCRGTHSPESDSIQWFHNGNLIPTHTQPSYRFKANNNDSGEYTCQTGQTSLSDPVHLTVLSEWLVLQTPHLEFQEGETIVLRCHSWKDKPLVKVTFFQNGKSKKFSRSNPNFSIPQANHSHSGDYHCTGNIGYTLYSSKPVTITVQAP

B1: X3-KI HM268-K8 (antibody)
chain 1: QVQLVQSGPEVKKPGASVKVVCKTSGYTFTSYYIQWLKQRPGQGLEWIGWIYFGDASTKYNEKFKGRVTMTADKSTSTAYMELRSLRSDDTAVYYCASYYGSYFDYWGQGTTVTVSSASTKGPSVFPLAPSSKSTSGGTAALGCLVKDYFPEPVTVSWNSGALTSGVHTFPAVLQSSGLYSLSSVVTVPSSSLGTQTYICNVNHKPSNTKVDKKVEPKSCDKTHTCPPCPAPELLGGPDVFLFPPKPKDTLMISRTPEVTCVVVDVSDEDPEVKFNWYVDGVEVHNAKTKPREEQYNSTYRVVSVLTVLHQDWLNGKEYKCAVSNKALPAPEEKTISKAKGQPREPQVYTLPPSRDELTKNQVSLTCLVKGFYPSDIAVEWESNGQPENNYKTTPPVLDSDGSFFLYSKLTVDKSRWQQGNVFSCSVMHEALHNHYTQKSLSLSPGK
chain 2: DIQMTQSPSSLSASVGDRVTITCRASQDISNYLNWYQQKPDGTVKLLIYSTSRLHSGVPSRFSGSGSGTDYTLTISSLQPEDFATYYCQQGSTLPFTFGQGTKLEIKRTVAAPSVFIFPPSDEQLKSGTASVVCLLNNFYPREAKVQWKVDNALQSGNSQESVTEQDSKDSTYSLSSTLTLSKADYEKHKVYACEVTHQGLSSPVTKSFNRGEC
B2: X3-K HM268-K8 (antibody)
chain 1: B1 chain 1 with E332I
chain 2: B1 chain 2
B3: X3-KE HM268-K8 (antibody)
chain 1: B1 chain 1 with E293A, E332I
chain 2: B1 chain 2
B4: X3-KSL HM268-K8 (antibody)
chain 1: B1 chain 1 with S267G, L328Y, E332I
chain 2: B1 chain 2
B5: X3-KSI HM268-K8 (antibody)
chain 1: B1 chain 1 with S267G
chain 2: B1 chain 2

Target: T1, FcγRIIB/C (CD32b/c) (FcγRIIB) (R&D …)
Assay: SPR

Kd | Binder
689 nM | B1
1380 nM | B2
1110 nM | B3
1240 nM | B4
1640 nM | B5

The binders below were run against Fc gamma RIIIA/CD16a, CF (FcγRIIIA(V158)) (R&D Systems) (assay: SPR).
Chain of Fc gamma RIIIA/CD16a, CF (FcγRIIIA(V158)) (R&D Systems) (chain, as listed by the source): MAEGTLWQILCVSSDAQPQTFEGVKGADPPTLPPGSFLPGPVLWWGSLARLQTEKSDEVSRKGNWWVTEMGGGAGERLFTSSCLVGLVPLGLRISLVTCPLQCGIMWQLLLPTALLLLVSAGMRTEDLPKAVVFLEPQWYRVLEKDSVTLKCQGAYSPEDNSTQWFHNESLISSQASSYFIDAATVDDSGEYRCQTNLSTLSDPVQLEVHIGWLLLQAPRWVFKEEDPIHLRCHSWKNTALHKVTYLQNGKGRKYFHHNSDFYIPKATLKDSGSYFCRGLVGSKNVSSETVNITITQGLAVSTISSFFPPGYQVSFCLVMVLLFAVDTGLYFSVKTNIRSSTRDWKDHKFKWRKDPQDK

Kd | Binder
162 nM | B1
370 nM | B2
305 nM | B3
3460 nM | B4
265 nM | B5
